Experiment [1] addresses Tau protein from human CSF (human) (UniProt P10636). Briefly: IP from human CSF, trypsin digest, MS; Tau peptide 6-23 (SEQ ID NO 69) quantified.
Experiment [2] has the same target. Kind of experiment: IP from human CSF, trypsin digest, MS; Tau peptide 24-44 (SEQ ID NO 70) quantified.
The target is the same in experiment [3]. Briefly: IP from human CSF, trypsin digest, MS; Tau peptide 45-67 (SEQ ID NO 71) quantified.
The target is the same in experiment [4]. Kind of experiment: IP from human CSF, trypsin digest, MS; Tau peptide 68-87 (SEQ ID NO 72) quantified.
Experiment [5] has the same target. Briefly: IP from human CSF, trypsin digest, MS; Tau peptide 88-126 (SEQ ID NO 73) quantified.
Experiment [6] has the same target. Briefly: IP from human CSF, trypsin digest, MS; Tau peptide 151-155 (SEQ ID NO 74) quantified.
Experiment [7] has the same target. Briefly: IP from human CSF, trypsin digest, MS; Tau peptide 175-180 (SEQ ID NO 75) quantified.
The target is the same in experiment [8]. Kind of experiment: IP from human CSF, trypsin digest, MS; Tau peptide 181-190 (SEQ ID NO 76) quantified.
The target is the same in experiment [9]. Kind of experiment: IP from human CSF, trypsin digest, MS; Tau peptide 195-209 (SEQ ID NO 77) quantified.
Experiment [10] has the same target. Briefly: IP from human CSF, trypsin digest, MS; Tau peptide 212-221 (SEQ ID NO 78) quantified.
The target is the same in experiment [11]. Kind of experiment: IP from human CSF, trypsin digest, MS; Tau peptide 212-224 (SEQ ID NO 79) quantified.
For experiment [12] the target is unchanged. Briefly: IP from human CSF, trypsin digest, MS; Tau peptide 260-267 (SEQ ID NO 80) quantified.
Experiment [13] shares this target. Briefly: IP from human CSF, trypsin digest, MS; Tau peptide 275-280 (SEQ ID NO 81) quantified.
The target is the same in experiment [14]. Kind of experiment: IP from human CSF, trypsin digest, MS; Tau peptide 282-290 (SEQ ID NO 82) quantified.
Experiment [15] shares this target. Briefly: IP from human CSF, trypsin digest, MS; Tau peptide 354-369 (SEQ ID NO 84) quantified.
The target is the same in experiment [16]. Briefly: IP from human CSF, trypsin digest, MS; Tau peptide 386-395 (SEQ ID NO 85) quantified.
The target is the same in experiment [17]. Briefly: IP from human CSF, trypsin digest, MS; Tau peptide 396-406 (SEQ ID NO 86) quantified.
The target is the same in experiment [18]. Briefly: IP from human CSF, trypsin digest, MS; Tau peptide 299-316 as printed (SEQ ID NO 83) quantified.

Chain of UniProt P10636 (P10636 other isoform, or with tags, fused parts or gaps limits assumed): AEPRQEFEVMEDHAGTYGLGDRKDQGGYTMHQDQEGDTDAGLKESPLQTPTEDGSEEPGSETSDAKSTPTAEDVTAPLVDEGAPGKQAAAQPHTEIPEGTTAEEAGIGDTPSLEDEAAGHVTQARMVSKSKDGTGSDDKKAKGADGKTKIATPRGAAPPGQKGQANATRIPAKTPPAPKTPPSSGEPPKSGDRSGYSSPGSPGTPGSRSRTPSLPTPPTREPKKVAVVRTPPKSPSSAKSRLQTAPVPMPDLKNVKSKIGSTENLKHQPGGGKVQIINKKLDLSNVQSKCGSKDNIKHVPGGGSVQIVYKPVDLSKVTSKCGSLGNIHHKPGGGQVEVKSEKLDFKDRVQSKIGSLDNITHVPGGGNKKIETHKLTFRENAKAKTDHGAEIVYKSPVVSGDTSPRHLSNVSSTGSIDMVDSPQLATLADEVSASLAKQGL

Regarding HJ8.7 (antibody), the Peptide Intensity (fraction of the highest abundance among the three IP antibodies) in experiment [1] turned out to be 0.68; in [2] it was 0.84; in experiment [3], 1; in [4], 1; in experiment [5], 1; in [6], 1. Besides, the Peptide Intensity (fraction of the highest abundance among the three IP antibodies) came to 1 in experiment [7]; 1 in experiment [8]; 0.8 in [9]; 0.86 in experiment [10]; 0.94 in experiment [11]; 1 in experiment [12]. Moreover, the Peptide Intensity (fraction of the highest abundance among the three IP antibodies) in [13] stood at 1; in experiment [14], 0.04; in [15] it was 1; in experiment [16] it was 1; in experiment [17], 0.39; in experiment [18], 1.

Regarding Tau12 (antibody), the Peptide Intensity (fraction of the highest abundance among the three IP antibodies) in experiment [1] was 1; in [2] it was 0.15; in [3] it was 0.92; in [4], 0.47; in experiment [5] it was 0.59; in experiment [6], 0.87. The Peptide Intensity (fraction of the highest abundance among the three IP antibodies) worked out at 0.99 in experiment [7]; 0.46 in experiment [8]; 1 in experiment [9]; 1 in [10]; 1 in experiment [11]; 0.86 in experiment [12]. The Peptide Intensity (fraction of the highest abundance among the three IP antibodies) in [13] turned out to be 0.31; in experiment [14], 1; in experiment [15], 0.86; in [16], 0.68; in [17] it was 0.42; in [18], 0.82.
